Data as given in article PMC4778124, “A continuous sirtuin activity assay without any coupling to enzymatic or chemical reactions” (Scientific Reports, 2016).
*: point of attachment. Myristoyl = CCCCCCCCCCCCCC(=O)*

Assays:
[1] = molecular target: human sirtuin 6, His-tagged Sirt6 (1-355) (human) (UniProt Q8N6T7)
[2] = substrate: CC(=O)N[C@@H](CCC(=O)O)C(=O)N[C@@H](C)C(=O)N[C@@H](CC(C)C)C(=O)N1CCC[C@H]1C(=O)N[C@@H](CCCCN)C(=O)N[C@@H](CCCCNC(=O)CCCCCCCCCCNC(=O)c1ccccc1N)C(=O)N[C@@H](Cc1ccc(O)c([N+](=O)[O-])c1)C(=O)NCC(=O)NCC(N)=O; experiment: Continuous fluorescence assay, substrate kinetics; format: biochemical, human; conditions: other: FS (fluorescence spectrometer); Sirt3 0.1 µM; 37.0 °C
Experimental: The fluorescence measurements were performed on a Hitachi F-4500 fluorescence spectrophotometer (Tokyo, Japan) at λEx = 310 nm and λEm = 405 nm (slitEx = 5 nm, slitEm = 2.5 nm, PMT = 700 V for 3, 4 and 5 as well as slitEx = 10 nm, slitEm = 10 nm, PMT = 950 V for 4a). Each reaction mixture contained assay-buffer, 0.5 mM NAD^+ and various peptide concentrations (0.1–100 μM) and was preincubated for 5 minutes at 37 °C. The reaction was started by adding human sirtuin (0.1–0.5 μM) and observed for 5–10 minutes. Product formation could be monitored by increase of relative fluorescence. This signal was converted into product concentration via calibration lines. The slope of the linear regression of product formation against time yielded the reaction velocity rates in μM/s. KM and kcat were obtained by non-linear regression according to Michaelis-Menten. All measurements were done in duplicates. For determination of reaction velocity rates in μM/s calibration lines were necessary. […] The reaction mixture was analyzed with HPLC, to control if the entire peptide substrate was turned to product. Additionally the mixture was diluted (0.1–25 μM) and measured with Hitachi F-4500 fluorescence spectrophotometer at the same conditions as described above.
The microtiter plate fluorescence measurements were performed on a Tecan Infinite M200 microplate reader (Maennedorf, Switzerland) at λEx = 320 nm and λEm = 408 nm (lag time 9 μs, integration time […], gain 160, 170 or 182). The reactions (total volume 100 μl) were measured in black low-binding 96-well microtiter plates (NUNC). […] The signals were converted into product concentration via calibration lines and the resulting data were evaluated as described above (single fluorescence measurement). […] The reaction mixture for the calibration lines was prepared as described for the single fluorescence measurements. […] The resulting plots were analyzed by a competitive inhibition and non-competitive inhibition model using the program Sigma Plot 8. […] The negative Ki value can be determined as intersection with the X-axis from these plots.

[3] = substrate: CCCCCCCCCCCCCC(=O)NCCCC[C@H](NC(=O)[C@H](CCCCN)NC(=O)[C@@H]1CCCN1C(=O)[C@H](CC(C)C)NC(=O)[C@H](C)NC(=O)[C@H](CCC(=O)O)NC(C)=O)C(=O)N[C@H](C(=O)NCC(=O)NCC(N)=O)[C@@H](C)O; experiment: HPLC based activity assay; format: biochemical, human; conditions: other: HPLC; Sirt3 0.1 µM; pH 7.8; 37.0 °C
Experimental: (§1) For the determination of kinetic constants for all sirtuin mediated reactions solutions containing 20 mM TRIS/HCl pH 7.8, 150 mM NaCl, 5 mM MgCl2 (assay-buffer), 500 μM NAD^+ and varying substrate concentrations (0.5–100 μM) were used. Deacylation was started by adding human sirtuin to reach a final concentration of 0.01–0.5 μM. Enzyme-catalyzed reaction was stopped using TFA (1% final concentration) after 1 min to 180 min of incubation at 37 °C depending on substrate reactivity. The cleavage rate of the different TNFα peptide derivatives was analyzed using analytical reversed phase HPLC. 40 to 80 μl of compounds or reaction solutions were injected and separated using a linear gradient from 5% to 95% solvent B within 6min. The product and substrate peaks were quantified using absorbance at 220 nm or 365 nm (absorption of 3-Nitrotyrosyl moiety). The peak areas were integrated and converted to initial velocity rates calculated from the ratio of product area to total peak area. Linear regression of conversions plotted against time yielded reaction rates in μM/min (relative conversion below 20% of substrate). Non-linear regression according to Michaelis-Menten of the reaction rates at different substrate concentrations yielded KM- and kcat-values using the program SigmaPlot 8 (Systat Software, San Jose, USA). All measurements were done in duplicates.
The reactions were performed with 0.1- 0.5 µM sirtuin, 500 µM NAD^+ and 50µM 13/16. All reactions were done in duplicates (n=2).

[4] = substrate: CC(=O)N[C@@H](CCC(=O)O)C(=O)N[C@@H](C)C(=O)N[C@@H](CC(C)C)C(=O)N1CCC[C@H]1C(=O)N[C@@H](CCCCN)C(=O)N[C@@H](CCCCNC(=O)CCCCCCCCCCNC(=O)c1ccccc1N)C(=O)N[C@@H](Cc1ccc(O)c([N+](=O)[O-])c1)C(=O)NCC(=O)NCC(N)=O; experiment: purified protein, by the assay type; conditions: other: Sirt1 500 nM; fluorescence spectrophotometer (footnote a); 37.0 °C
Experimental: The reactions (total volume 100 μl) were measured in black low-binding 96-well microtiter plates (NUNC). Assay-buffer, 500 μM NAD^+ and 0.07–200 μM peptide substrate were pre-incubated at 37 °C for 5 min. The reaction was started by adding human sirtuin (0.01–0.5 μM). The signals were converted into product concentration via calibration lines and the resulting data were evaluated as described above (single fluorescence measurement). […] The reaction mixture for the calibration lines was prepared as described for the single fluorescence measurements.

[5] = substrate: CCCCCCCCCCCCCC(=O)NCCCC[C@H](NC(=O)[C@H](CCCCN)NC(=O)[C@@H]1CCCN1C(=O)[C@H](CC(C)C)NC(=O)[C@H](C)NC(=O)[C@H](CCC(=O)O)NC(C)=O)C(=O)N[C@H](C(=O)NCC(=O)NCC(N)=O)[C@@H](C)O; experiment: HPLC based activity assay; format: biochemical, human; conditions: other: HPLC; Sirt5 0.5 µM; pH 7.8; 37.0 °C
Experimental: as §1

Sequence of human sirtuin 6, His-tagged Sirt6 (1-355) (human) (Q8N6T7 whole entry): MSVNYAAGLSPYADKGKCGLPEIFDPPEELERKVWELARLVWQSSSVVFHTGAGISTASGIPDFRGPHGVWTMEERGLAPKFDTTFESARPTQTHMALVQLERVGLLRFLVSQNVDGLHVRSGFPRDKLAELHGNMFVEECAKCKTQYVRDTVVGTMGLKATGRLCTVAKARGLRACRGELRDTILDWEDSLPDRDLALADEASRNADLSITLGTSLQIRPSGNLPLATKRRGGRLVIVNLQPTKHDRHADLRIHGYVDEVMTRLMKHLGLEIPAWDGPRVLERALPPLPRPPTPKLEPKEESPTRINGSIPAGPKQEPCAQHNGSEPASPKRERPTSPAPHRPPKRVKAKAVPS

B1: myristoylated TNFα-derived peptide 1a (peptide)
peptide: Ac-EALPKK(Myristoyl)TGG-NH2
SMILES: CCCCCCCCCCCCCC(=O)NCCCC[C@H](NC(=O)[C@H](CCCCN)NC(=O)[C@@H]1CCCN1C(=O)[C@H](CC(C)C)NC(=O)[C@H](C)NC(=O)[C@H](CCC(=O)O)NC(C)=O)C(=O)N[C@H](C(=O)NCC(=O)NCC(N)=O)[C@@H](C)O
KM of Sirt6-mediated deacylation, HPLC-based activity assay [1]: 6 µM

B2: Sirt3 (Homo sapiens) (protein)
chain: MAFWGWRAAAALRLWGRVVERVEAGGGVGPFQACGCRLVLGGRDDVSAGLRGSHGARGEPLDPARPLQRPPRPEVPRAFRRQPRAAAPSFFFSSIKGGRRSISFSVGASSVVGSGGSSDKGKLSLQDVAELIRARACQRVVVMVGAGISTPSGIPDFRSPGSGLYSNLQQYDLPYPEAIFELPFFFHNPKPFFTLAKELYPGNYKPNVTHYFLRLLHDKGLLLRLYTQNIDGLERVSGIPASKLVEAHGTFASATCTVCQRPFPGEDIRADVMADRVPRCPVCTGVVKPDIVFFGEPLPQRFLLHVVDFPMADLLLILGTSLEVEPFASLTEAVRSSVPRLLINRDLVGPLAWHPRSRDVAQLGDVVHGVESLVELLGWTEEMRDLVQRETGKLDGPDK
notes: made in house
Km [2]: 2.4 ± 0.2 µM
kcat [2]: 1.2∙10^-2 ± 0.3∙10^-3 s^-1
kcat/Km [2]: 5.15∙10^3 M^-1s^-1
Km [3]: 1.6 ± 0.4 µM
kcat [3]: 4.7∙10^-2 ± 0.3∙10^-2 s^-1
kcat/Km [3]: 2.95∙10^4 M^-1s^-1

B3: Sirt1 (Homo sapiens) (protein)
chain: MADEAALALQPGGSPSAAGADREAASSPAGEPLRKRPRRDGPGLERSPGEPGGAAPEREVPAAARGCPGAAAAALWREAEAEAAAAGGEQEAQATAAAGEGDNGPGLQGPSREPPLADNLYDEDDDDEGEEEEEAAAAAIGYRDNLLFGDEIITNGFHSCESDEEDRASHASSSDWTPRPRIGPYTFVQQHLMIGTDPRTILKDLLPETIPPPELDDMTLWQIVINILSEPPKRKKRKDINTIEDAVKLLQECKKIIVLTGAGVSVSCGIPDFRSRDGIYARLAVDFPDLPDPQAMFDIEYFRKDPRPFFKFAKEIYPGQFQPSLCHKFIALSDKEGKLLRNYTQNIDTLEQVAGIQRIIQCHGSFATASCLICKYKVDCEAVRGDIFNQVVPRCPRCPADEPLAIMKPEIVFFGENLPEQFHRAMKYDKDEVDLLIVIGSSLKVRPVALIPSSIPHEVPQILINREPLPHLHFDVELLGDCDVIINELCHRLGGEYAKLCCNPVKLSEITEKPPRTQKELAYLSELPPTPLHVSEDSSSPERTSPPDSSVIVTLLDQAAKSNDDLDVSESKGCMEEKPQEVQTSRNVESIAEQMENPDLKNVGSSTGEKNERTSVAGTVRKCWPNRVAKEQISRRLDGNQYLFLPPNRYIFHGAEVYSDSEDDVLSSSSCGSNSDSGTCQSPSLEEPMEDESEIEEFYNGLEDEPDVPERAGGAGFGTDGDDQEAINEAISVKQEVTDMNYPSNKS
Km [4]: 0.7 ± 0.08 µM

B4: Sirt5 (Homo sapiens) (protein)
chain: SSSMADFRKFFAKAKHIVIISGAGVSAESGVPTFRGAGGYWRKWQAQDLATPLAFAHNPSRVWEFYHYRREVMGSKEPNAGHRAIAECETRLGKQGRRVVVITQNIDELHRKAGTKNLLEIHGSLFKTRCTSCGVVAENYKSPICPALSGKGAPEPGTQDASIPVEKLPRCEEAGCGGLLRPHVVWFGENLDPAILEEVDRELAHCDLCLVVGTSSVVYPAAMFAPQVAARGVPVAEFNTETTPATNRFRFHFQGPCGTTLPEALACHENETVS
notes: made in house
Km [5]: 16.5 ± 3.1 µM
kcat [5]: 5.7∙10^-3 ± 0.3∙10^-3 s^-1
kcat/Km [5]: 3.48∙10^2 M^-1s^-1
